Test results published in patent US20240209100A1 (DIAGONAL THERAPEUTICS, published 2024).
Read-outs that look alike come from different tables or passages of the source.

T1: IL-18 receptor (IL-18Rα/IL-18Rβ) overexpressed on HEK-Blue IL-18 cells (Homo sapiens (Human), UniProt Q13478 19-541; O95256 20-599)
T1 sequence 1: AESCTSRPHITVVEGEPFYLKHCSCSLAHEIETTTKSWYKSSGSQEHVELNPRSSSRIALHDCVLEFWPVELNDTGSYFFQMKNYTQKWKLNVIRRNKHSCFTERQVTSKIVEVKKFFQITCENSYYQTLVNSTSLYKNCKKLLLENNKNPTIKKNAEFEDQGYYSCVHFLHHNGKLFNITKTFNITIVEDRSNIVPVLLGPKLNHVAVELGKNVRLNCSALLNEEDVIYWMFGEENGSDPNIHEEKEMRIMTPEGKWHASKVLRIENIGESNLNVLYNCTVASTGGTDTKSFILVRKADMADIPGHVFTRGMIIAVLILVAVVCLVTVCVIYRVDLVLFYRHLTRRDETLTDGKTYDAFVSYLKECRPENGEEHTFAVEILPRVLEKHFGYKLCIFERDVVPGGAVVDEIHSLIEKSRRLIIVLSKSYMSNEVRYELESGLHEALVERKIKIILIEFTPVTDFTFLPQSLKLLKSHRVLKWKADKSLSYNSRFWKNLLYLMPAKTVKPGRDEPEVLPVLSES
T1 sequence 2: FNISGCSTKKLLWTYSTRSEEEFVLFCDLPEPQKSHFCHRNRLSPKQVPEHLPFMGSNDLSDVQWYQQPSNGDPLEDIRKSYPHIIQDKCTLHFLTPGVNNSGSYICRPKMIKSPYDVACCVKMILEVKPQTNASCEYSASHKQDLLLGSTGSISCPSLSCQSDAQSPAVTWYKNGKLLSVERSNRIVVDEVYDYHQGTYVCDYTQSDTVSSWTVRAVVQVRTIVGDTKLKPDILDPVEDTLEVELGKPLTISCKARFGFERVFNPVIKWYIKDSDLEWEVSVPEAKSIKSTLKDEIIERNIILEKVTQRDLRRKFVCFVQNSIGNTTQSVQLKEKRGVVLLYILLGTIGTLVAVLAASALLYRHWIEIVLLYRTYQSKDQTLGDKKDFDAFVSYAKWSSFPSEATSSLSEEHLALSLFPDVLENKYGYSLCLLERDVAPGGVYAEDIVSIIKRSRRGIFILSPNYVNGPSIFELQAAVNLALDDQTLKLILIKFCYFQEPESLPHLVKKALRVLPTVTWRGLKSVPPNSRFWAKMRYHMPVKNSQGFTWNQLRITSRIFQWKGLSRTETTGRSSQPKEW


Assays:
Test in all cases: cell-based or functional assay
[1] = biological target: T1, IL-18 receptor (IL-18Rα/IL-18Rβ) …
[2] = biological target: T1, IL-18 receptor (IL-18Rα/IL-18Rβ) …; remark: listed apart in the source
[3] = biological target: T1, IL-18 receptor (IL-18Rα/IL-18Rβ) …; remark: listed apart in the source
[4] = biological target: T1, IL-18 receptor (IL-18Rα/IL-18Rβ) …; remark: listed apart in the source

Row | Binder | HEK-Blue IL-18: Abs 405 [1] | HEK-Blue IL-18: Fold over Background [1] | HEK-Blue IL-18: Abs 405 at 100 nM [2] | HEK-Blue IL-18: Fold over Background [2] | further results
1 | DGL160 (bispecific antibody) heavy 1: QVQLVESGGGLVQAGGSLRLSCAASGRTFSSYTMGWFRQAPGKEREFVAAISWSAGRTYYADSVKGRFTISRDNAKNTVYLQMNSLKPEDTAVYFCAAEEAPDWAPIDCSGYGCLSLYDYWGQGTQVTVSSDKGPSVFPLAPEPKSSEVQLVESGGGLVQAGGSLRLSCAASGRTFRNYHMGWFRQAPGQEREFVAAISSSGGKTSYPDSVNGRFTISRDNAKNTVYLQMNNLKVEDTAVYYCAADPRYWVAAGGSEPENVEVWGQGTLVTVSSDKTHTCPPCPAPEAAGGPSVFLFPPKPKDTLMISRTPEVTCVVVDVSHEDPEVKFNWYVDGVEVHNAKTKPREEQYNSTYRVVSVLTVLHQDWLNGKEYKCKVSNKALPAPIEKTISKAKGQPREPQVCTLPPSRDELTKNQVSLSCAVKGFYPSDIAVEWESNGQPENNYKTTPPVLDSDGSFFLVSKLTVDKSRWQQGNVFSCSVMHEALHNHYTQKSLSLSPG heavy 2: not shown | 0.16 Abs | 1.3 fold | – | – | –
2 | DGL222 (bispecific antibody) heavy 1: QVQLVESGGGLVQAGGSLRLSCAASGRTFSKHAMGWFRQAPGKEREFVAAIDWSGGSTYYADSVKGRFTISRDNAKNTVYLQMDSLKPEDTAVYYCAADSYTDYAQLWLPELESEYDYWGQGTLVTVSSEKSYGPPCPPCPAPEAAGAPSVFLFPPKPKDTLMISRTPEVTCVVVDVSHEDPEVKFNWYVDGVEVHNAKTKPREEQYNSTYRVVSVLTVLHQDWLNGKEYKCKVSNKALPAPIEKTISKAKGQPREPQVCTLPPSRDELTKNQVSLSCAVKGFYPSDIAVEWESNGQPENNYKTTPPVLDSDGSFFLVSKLTVDKSRWQQGNVFSCSVMHEALHNHYTQKSLSLSPGWSHPQFEK heavy 2: not shown | – | – | 1.3 Abs | 5.5 fold | –
3 | DGL165 (bispecific antibody) heavy 1: QVQLVESGGGLVQAGGSLRLSCAASGRTFSSYTMGWFRQAPGKEREFVAAISWSAGRTYYADSVKGRFTISRDNAKNTVYLQMNSLKPEDTAVYFCAAEEAPDWAPIDCSGYGCLSLYDYWGQGTQVTVSSGGGSEVQLVESGGGLVQAGGSLRLSCAASGRTFRNYHMGWFRQAPGQEREFVAAISSSGGKTSYPDSVNGRFTISRDNAKNTVYLQMNNLKVEDTAVYYCAADPRYWVAAGGSEPENVEVWGQGTLVTVSSDKTHTCPPCPAPEAAGGPSVFLFPPKPKDTLMISRTPEVTCVVVDVSHEDPEVKFNWYVDGVEVHNAKTKPREEQYNSTYRVVSVLTVLHQDWLNGKEYKCKVSNKALPAPIEKTISKAKGQPREPQVCTLPPSRDELTKNQVSLSCAVKGFYPSDIAVEWESNGQPENNYKTTPPVLDSDGSFFLVSKLTVDKSRWQQGNVFSCSVMHEALHNHYTQKSLSLSPG heavy 2: not shown | 0.19 Abs | 1.6 fold | – | – | –
4 | DGL162 (bispecific antibody) heavy 1: QVQLVESGGGLVQAGGSLRLSCAASGRTFSKHAMGWFRQAPGKEREFVAAIDWSGGSTYYADSVKGRFTISRDNAKNTVYLQMDSLKPEDTAVYYCAADSYTDYAQLWLPELESEYDYWGQGTQVTVSSDKGPSVFPLAPEPKSSQVQLQESGGGLVQAGGSLKLSCQASGLTFKRNTMGWFRQAPGKEREFVAHFLWTGGETDYADAVKGRFTISRDNAKNTVYLQMNSLKPEDTAVYFCAANYAGYRIDGYQYWGQGTQVTVSSDKTHTCPPCPAPEAAGGPSVFLFPPKPKDTLMISRTPEVTCVVVDVSHEDPEVKFNWYVDGVEVHNAKTKPREEQYNSTYRVVSVLTVLHQDWLNGKEYKCKVSNKALPAPIEKTISKAKGQPREPQVCTLPPSRDELTKNQVSLSCAVKGFYPSDIAVEWESNGQPENNYKTTPPVLDSDGSFFLVSKLTVDKSRWQQGNVFSCSVMHEALHNHYTQKSLSLSPG heavy 2: not shown | 0.79 Abs | 6.6 fold | – | – | –
5 | DGL093 (bispecific antibody) heavy 1: QVQLVESGGGLVQAGGSLRLSCAASGRTFSKHAMGWFRQAPGKEREFVAAIDWSGGSTYYADSVKGRFTISRDNAKNTVYLQMDSLKPEDTAVYYCAADSYTDYAQLWLPELESEYDYWGQGTQVTVSSDKTHTCPPCPAPEAAGGPSVFLFPPKPKDTLMISRTPEVTCVVVDVSHEDPEVKFNWYVDGVEVHNAKTKPREEQYNSTYRVVSVLTVLHQDWLNGKEYKCKVSNKALPAPIEKTISKAKGQPREPQVCTLPPSRDELTKNQVSLSCAVKGFYPSDIAVEWESNGQPENNYKTTPPVLDSDGSFFLVSKLTVDKSRWQQGNVFSCSVMHEALHNHYTQKSLSLSPG heavy 2: not shown | – | – | 0.9 Abs | 4.1 fold | HEK-Blue IL-18: Abs405 (Emax) [3]: 1.38 Abs; HEK-Blue IL-18: EC50 [3]: 8.3 pM; HEK-Blue IL-18: Fold over Background [4]: 9.2 fold
6 | DGL164 (bispecific antibody) heavy 1: QVQLVESGGGLVQAGGSLRLSCAASGRTFSSYTMGWFRQAPGKEREFVAAISWSAGRTYYADSVKGRFTISRDNAKNTVYLQMNSLKPEDTAVYFCAAEEAPDWAPIDCSGYGCLSLYDYWGQGTQVTVSSDKGPSVFPLAPEPKSSQVQLVESGGGLVQAGGSLRLSCAASQTGFNMNRMGWYRQAPGKQRELVATITGGGSTTYADSVKGRFDISRGNVENNLYLQMNSLKPEDTAVYYCNALLFGRDYWGQGTQVTVSSDKTHTCPPCPAPEAAGGPSVFLFPPKPKDTLMISRTPEVTCVVVDVSHEDPEVKFNWYVDGVEVHNAKTKPREEQYNSTYRVVSVLTVLHQDWLNGKEYKCKVSNKALPAPIEKTISKAKGQPREPQVCTLPPSRDELTKNQVSLSCAVKGFYPSDIAVEWESNGQPENNYKTTPPVLDSDGSFFLVSKLTVDKSRWQQGNVFSCSVMHEALHNHYTQKSLSLSPG heavy 2: not shown | 0.28 Abs | 2.3 fold | – | – | –

More lines, main results first:

Row | HEK-Blue IL-18: Abs 405 [1] | HEK-Blue IL-18: Fold over Background [1] | HEK-Blue IL-18: Abs 405 at 100 nM [2] | HEK-Blue IL-18: Fold over Background [2] | Binder | further results
7 | 0.36 Abs | 3 fold | – | – | DGL163 (bispecific antibody) heavy 1: QVQLVESGGGLVQAGGSLRLSCAASGRTFSSYNMGWFRQAPGKERESVAAISWSGGSSYYADSVKGRFTISRDNAKPTVYLQMNSLKPEDTAVYYCAADRDSEEWDGSSWFFKSDYWGQGTQVTVSSDKGPSVFPLAPEPKSSQVQLVESGGGLVQTGGPLRLSCAASGGTFSRYTMGWFRQAPGKEREYVAAISWRGSSIYYADAVKGRFTISRDSAKSTVYLQMNNLNSDDTAVYYCAADRTDLPRNAGEYGYWGQGTQVTVSSDKTHTCPPCPAPEAAGGPSVFLFPPKPKDTLMISRTPEVTCVVVDVSHEDPEVKFNWYVDGVEVHNAKTKPREEQYNSTYRVVSVLTVLHQDWLNGKEYKCKVSNKALPAPIEKTISKAKGQPREPQVCTLPPSRDELTKNQVSLSCAVKGFYPSDIAVEWESNGQPENNYKTTPPVLDSDGSFFLVSKLTVDKSRWQQGNVFSCSVMHEALHNHYTQKSLSLSPG heavy 2: not shown | –
8 | 0.19 Abs | 1.6 fold | – | – | DGL161 (bispecific antibody) heavy 1: EVQLVESGGGLVQPGGSLRLSCAASGFFLDDYVLGWFRQAPGKPREGVSCISSRGRYLNYAETVKGRFTISRSNAKNTVYLQMNNLEPEDTAVYYCAAVRRVSEVCKLAEDDFASWGQGTQVTVSSDKGPSVFPLAPEPKSSQVQLVESGGGLVQAGDSLRLSCVASERTFSSYTMGWFRQAPGKEREFTAALSWWNGGISTAYADSVKGRFTISRDNAKNTVYLQMNSLKTEDTALYYCAAARDRMPRADEYDYWGQGTQVTVSSDKTHTCPPCPAPEAAGGPSVFLFPPKPKDTLMISRTPEVTCVVVDVSHEDPEVKFNWYVDGVEVHNAKTKPREEQYNSTYRVVSVLTVLHQDWLNGKEYKCKVSNKALPAPIEKTISKAKGQPREPQVCTLPPSRDELTKNQVSLSCAVKGFYPSDIAVEWESNGQPENNYKTTPPVLDSDGSFFLVSKLTVDKSRWQQGNVFSCSVMHEALHNHYTQKSLSLSPG heavy 2: not shown | –
9 | – | – | 0.6 Abs | 2.4 fold | DGL221 (bispecific antibody) heavy 1: QVQLVESGGGLVQAGGSLRLSCAASGRTFSKHAMGWFRQAPGKEREFVAAIDWSGGSTYYADSVKGRFTISRDNAKNTVYLQMDSLKPEDTAVYYCAADSYTDYAQLWLPELESEYDYWGQGTLVTVSSGGGGSGGGGSGGGGSGGGGSCPPCPAPEAAGAPSVFLFPPKPKDTLMISRTPEVTCVVVDVSHEDPEVKFNWYVDGVEVHNAKTKPREEQYNSTYRVVSVLTVLHQDWLNGKEYKCKVSNKALPAPIEKTISKAKGQPREPQVCTLPPSRDELTKNQVSLSCAVKGFYPSDIAVEWESNGQPENNYKTTPPVLDSDGSFFLVSKLTVDKSRWQQGNVFSCSVMHEALHNHYTQKSLSLSPGWSHPQFEK heavy 2: not shown | –
